Kd and Ka data for one molecule are collected here from publication PMC11514458.

By Kd is commonly meant the free concentration of one partner at which half of the binding sites on the other are occupied at equilibrium, for simple one-to-one binding.

In data set [1] the target is T1, RAD51 (UniProt Q06609 1-339). Nature of the data set: stopped-flow fluorescence (Hill); Kd,1; ATP, Mg2+; EMSA: 20 mM Tris-HCl pH 7.5, 2 mM MgCl2, 2 mM ATP, 37 C, 20 nM DNA, glutaraldehyde fixation; stopped-flow: 25 mM Tris-HCl pH 7.5, 5 mM MgCl2, 50 mM KCl, 2 mM ATP, 0.5 mM EDTA, 10% glycerol, 37 C; BLI: 50 mM Tris-HCl pH 7.5, 2 mM ATP, 50 mM KCl, 5 mM MgCl2, 0.05% Tween 20, room temperature. To be noted: protein: recombinant; chain copies: 10; label: Cy3 at 3' or 5'. Background: In EMSA bound probe runs differently from free probe, usually more slowly.

In data set [2] the target is T2, BCDX2 complex (human, UniProt O15315;O43502;O75771;O43543 1-384;1-376;1-328;1-280).
T2 sequence 1: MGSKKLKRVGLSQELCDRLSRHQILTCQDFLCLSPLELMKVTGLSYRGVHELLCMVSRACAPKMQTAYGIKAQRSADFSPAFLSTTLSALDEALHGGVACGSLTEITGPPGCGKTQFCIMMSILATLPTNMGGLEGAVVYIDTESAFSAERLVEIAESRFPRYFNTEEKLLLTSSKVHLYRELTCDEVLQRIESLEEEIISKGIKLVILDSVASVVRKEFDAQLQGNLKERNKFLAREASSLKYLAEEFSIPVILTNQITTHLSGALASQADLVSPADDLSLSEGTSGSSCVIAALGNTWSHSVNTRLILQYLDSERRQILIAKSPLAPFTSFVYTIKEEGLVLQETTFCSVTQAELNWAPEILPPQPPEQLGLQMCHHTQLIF
T2 sequence 2: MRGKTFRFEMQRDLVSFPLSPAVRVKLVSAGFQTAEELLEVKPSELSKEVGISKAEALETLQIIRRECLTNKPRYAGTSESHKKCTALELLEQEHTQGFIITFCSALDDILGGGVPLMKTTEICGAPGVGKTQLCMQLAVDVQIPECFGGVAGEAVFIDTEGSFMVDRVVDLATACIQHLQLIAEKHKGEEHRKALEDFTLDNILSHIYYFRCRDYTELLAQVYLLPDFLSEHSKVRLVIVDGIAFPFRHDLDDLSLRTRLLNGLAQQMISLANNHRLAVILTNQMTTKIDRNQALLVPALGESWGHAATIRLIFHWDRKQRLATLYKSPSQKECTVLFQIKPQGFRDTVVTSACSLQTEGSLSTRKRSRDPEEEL
T2 sequence 3: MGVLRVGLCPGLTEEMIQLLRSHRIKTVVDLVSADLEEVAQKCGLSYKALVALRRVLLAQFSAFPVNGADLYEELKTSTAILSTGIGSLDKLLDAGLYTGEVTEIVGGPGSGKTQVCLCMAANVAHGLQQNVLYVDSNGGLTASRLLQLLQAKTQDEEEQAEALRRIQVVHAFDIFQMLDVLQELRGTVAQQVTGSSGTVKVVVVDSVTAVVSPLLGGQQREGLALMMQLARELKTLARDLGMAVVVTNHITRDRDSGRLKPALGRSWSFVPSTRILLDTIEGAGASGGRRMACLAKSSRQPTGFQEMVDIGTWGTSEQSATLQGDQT
T2 sequence 4: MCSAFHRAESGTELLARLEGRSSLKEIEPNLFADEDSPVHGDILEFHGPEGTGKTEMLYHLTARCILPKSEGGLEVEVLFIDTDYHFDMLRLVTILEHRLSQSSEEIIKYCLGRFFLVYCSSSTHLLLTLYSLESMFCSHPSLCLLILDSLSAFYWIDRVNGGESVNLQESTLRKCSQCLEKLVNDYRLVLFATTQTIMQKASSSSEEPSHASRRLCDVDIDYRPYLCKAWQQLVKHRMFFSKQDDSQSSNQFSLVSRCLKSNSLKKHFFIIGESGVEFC
Description: stopped-flow fluorescence (amplitude, A1); Kd,1 initial complex; ATP, Mg2+; EMSA: 20 mM Tris-HCl pH 7.5, 2 mM MgCl2, 2 mM ATP, 37 C, 20 nM DNA, glutaraldehyde fixation; stopped-flow: 25 mM Tris-HCl pH 7.5, 5 mM MgCl2, 50 mM KCl, 2 mM ATP, 0.5 mM EDTA, 10% glycerol, 37 C; BLI: 50 mM Tris-HCl pH 7.5, 2 mM ATP, 50 mM KCl, 5 mM MgCl2, 0.05% Tween 20, room temperature. To be noted: protein: recombinant; tags: Strep-tag and His-tag (XRCC2 N-terminal His); copies: 1;1;1;1; label: Cy3 at 3' or 5'.

The target of data set [3] is T2, BCDX2 complex. Description: stopped-flow fluorescence (total amplitude); Kd,net two-step; ATP, Mg2+; EMSA: 20 mM Tris-HCl pH 7.5, 2 mM MgCl2, 2 mM ATP, 37 C, 20 nM DNA, glutaraldehyde fixation; stopped-flow: 25 mM Tris-HCl pH 7.5, 5 mM MgCl2, 50 mM KCl, 2 mM ATP, 0.5 mM EDTA, 10% glycerol, 37 C; BLI: 50 mM Tris-HCl pH 7.5, 2 mM ATP, 50 mM KCl, 5 mM MgCl2, 0.05% Tween 20, room temperature. The following applies: protein: recombinant; tags: Strep-tag and His-tag (XRCC2 N-terminal His); copies: 1;1;1;1; label: Cy3 at 3' or 5'.

The target of a further data set is RAD51;BCDX2 complex (human?;human, UniProt Q06609;O15315;O43502;O75771;O43543 1-339;1-384;1-376;1-328;1-280, |). Description: stopped-flow fluorescence (global fit); RAD51 binding in presence of BCDX2; ATP, Mg2+; EMSA: 20 mM Tris-HCl pH 7.5, 2 mM MgCl2, 2 mM ATP, 37 C, 20 nM DNA, glutaraldehyde fixation; stopped-flow: 25 mM Tris-HCl pH 7.5, 5 mM MgCl2, 50 mM KCl, 2 mM ATP, 0.5 mM EDTA, 10% glycerol, 37 C; BLI: 50 mM Tris-HCl pH 7.5, 2 mM ATP, 50 mM KCl, 5 mM MgCl2, 0.05% Tween 20, room temperature. To be noted: protein: recombinant;recombinant; tags: ;Strep-tag and His-tag (XRCC2 N-terminal His); copies: 1;1;1;1;1; label: Cy3 at 3' or 5'.

Data set [4] has as its target T2, BCDX2 complex. Nature of the data set: stopped-flow fluorescence (global fit); initial complex k1/k-1; 2 mM ATP, 5 mM Mg2+; EMSA: 20 mM Tris-HCl pH 7.5, 2 mM MgCl2, 2 mM ATP, 37 C, 20 nM DNA, glutaraldehyde fixation; stopped-flow: 25 mM Tris-HCl pH 7.5, 5 mM MgCl2, 50 mM KCl, 2 mM ATP, 0.5 mM EDTA, 10% glycerol, 37 C; BLI: 50 mM Tris-HCl pH 7.5, 2 mM ATP, 50 mM KCl, 5 mM MgCl2, 0.05% Tween 20, room temperature. The following applies: protein: recombinant; tags: Strep-tag and His-tag (XRCC2 N-terminal His); copies: 1;1;1;1; label: Cy3 at 3' or 5'.

For data set [5], the target named is T1, RAD51. Nature of the data set: stopped-flow fluorescence (global fit); RAD51 without BCDX2; ATP, Mg2+; EMSA: 20 mM Tris-HCl pH 7.5, 2 mM MgCl2, 2 mM ATP, 37 C, 20 nM DNA, glutaraldehyde fixation; stopped-flow: 25 mM Tris-HCl pH 7.5, 5 mM MgCl2, 50 mM KCl, 2 mM ATP, 0.5 mM EDTA, 10% glycerol, 37 C; BLI: 50 mM Tris-HCl pH 7.5, 2 mM ATP, 50 mM KCl, 5 mM MgCl2, 0.05% Tween 20, room temperature. The following applies: protein: recombinant; chain copies: 10; label: Cy3 at 3' or 5'.

Data set [6] deals with T1, RAD51. Nature of the data set: stopped-flow fluorescence (global fit); initial weak binding step; 2 mM ATP, 5 mM Mg2+; EMSA: 20 mM Tris-HCl pH 7.5, 2 mM MgCl2, 2 mM ATP, 37 C, 20 nM DNA, glutaraldehyde fixation; stopped-flow: 25 mM Tris-HCl pH 7.5, 5 mM MgCl2, 50 mM KCl, 2 mM ATP, 0.5 mM EDTA, 10% glycerol, 37 C; BLI: 50 mM Tris-HCl pH 7.5, 2 mM ATP, 50 mM KCl, 5 mM MgCl2, 0.05% Tween 20, room temperature. To be noted: protein: recombinant; chain copies: 10; label: Cy3 at 3' or 5'.

T1 sequence (Q06609 whole entry): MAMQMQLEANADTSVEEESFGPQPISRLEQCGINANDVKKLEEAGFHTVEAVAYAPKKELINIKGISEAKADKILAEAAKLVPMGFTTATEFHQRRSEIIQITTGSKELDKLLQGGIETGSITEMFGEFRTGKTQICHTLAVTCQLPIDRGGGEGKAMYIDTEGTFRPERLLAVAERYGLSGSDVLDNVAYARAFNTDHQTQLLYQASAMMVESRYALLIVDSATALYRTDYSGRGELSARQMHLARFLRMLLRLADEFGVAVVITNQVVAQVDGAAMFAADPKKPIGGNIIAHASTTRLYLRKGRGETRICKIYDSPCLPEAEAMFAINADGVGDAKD
Chain of RAD51;BCDX2 complex (Q06609 whole entry, one chain of several): as the sequence (Q06609 whole entry) above

For the molecule TTTTTTTTTTTTTTTTTTTTTTTTTTTTTTTTTTTTTTTTTTT (ssDNA) [Cy3-dT43], the results for the dissociation constant (Kd) with RAD51 [1], with BCDX2 complex [2] and in the data set with BCDX2 complex [3] were 1600 ± 200 nM, 310 ± 50 nM and 220 ± 20 nM, respectively. The Ka with RAD51;BCDX2 complex stood at 0.064 nM⁻¹; in the data set with BCDX2 complex [4], 3.1 µM⁻¹; in the data set with RAD51 [5] it was 0.026 nM⁻¹; with RAD51 [6], 0.09 µM⁻¹.
